From patent US20190241669A1 (published 2019)
Substitutions are numbered along the chain they refer to.

B1: COMBO_Rd4_6nM_C08 (antibody, V domains shown)
VH: EVQLLESGGGLVQPGGSLRLSCAASGFTFSSYPMSWVRQAPGKGLEWVSAIGGSGTWTYYADSVKGRFTISRDNSKNTLYLQMNSLRAEDTAVYYCARYWPMDSWGQGTLVTVSS
VL: EIVLTQSPGTLSLSPGERATLSCRASQSVSSSYLAWYQQKPGQAPRLLMYDASIRATGIPDRFSGSGSGTDFTLTISRLEPEDFAVYYCQQYQKWPLTFGQGTKVEIK
notes: IgG
B2: COMBO_Rd4_6nM_C10 (antibody, V domains shown)
VH: B1 VH with T56G, W57S, T58I, Y59H
VL: B1 VL with L34W, A35G, K94C
notes: IgG
B3: L3.PY/L3.KF/H3.AQ (antibody, V domains shown)
VH: EVQLLESGGGLVQPGGSLRLSCAASGFTFGSYAMTWVRQAPGKGLEWVSAISGSGGNTFYADSVKGRFTISRDNSKNTLYLQMNSLRAEDTAVYYCARVSPIAAQMDYWGQGTLVTVSS
VL: EIVLTQSPGTLSLSPGERATLSCRASQSVSSSYLAWYQQKPGQAPRLLIYGASSRATGIPDRFSGSGSGTDFTLTISRLEPEDFAVYYCKFYPYPPSFTFGQGTKVEIK
notes: IgG
B4: L3.PY/L1.FF/H2.LT (antibody, V domains shown)
VH: B3 VH with G53L, S54T, A104S, Q105G
VL: B3 VL with S32F, Y33F, K90Q, F91H
notes: IgG
B5: L3.PY/L1.FF/H3.TAQ (antibody, V domains shown)
VH: B3 VH with A97T
VL: B3 VL with S32F, Y33F, K90Q, F91H
notes: IgG
B6: L3.PY/L1.AH/H3.TAQ (antibody, V domains shown)
VH: B3 VH with A97T
VL: B3 VL with S31A, S32H, K90Q, F91H
notes: IgG
B7: L3.PY/L1.FF/H2.DY (antibody, V domains shown)
VH: B3 VH with S52D, G53Y, A104S, Q105G
VL: B3 VL with S32F, Y33F, K90Q, F91H
notes: IgG
B8: L3.PY/L1.FF/H2.QR (antibody, V domains shown)
VH: B3 VH with S63Q, V64R, A104S, Q105G
VL: B3 VL with S32F, Y33F, K90Q, F91H
notes: IgG
B9: L3.PY/L1.FF/H2.YQ (antibody, V domains shown)
VH: B3 VH with G53Y, S54Q, A104S, Q105G
VL: B3 VL with S32F, Y33F, K90Q, F91H
notes: IgG
B10: L3.PY/L1.FF/H2.HA (antibody, V domains shown)
VH: B3 VH with G53H, S54A, A104S, Q105G
VL: B3 VL with S32F, Y33F, K90Q, F91H
notes: IgG
B11: L3.PY/L1.FF/H3.AQ (antibody, V domains shown)
VH: B3 VH
VL: B3 VL with S32F, Y33F, K90Q, F91H
notes: IgG
B12: L3.PY/L1.FF/H3.AE (antibody, V domains shown)
VH: B3 VH with Q105E
VL: B3 VL with S32F, Y33F, K90Q, F91H
notes: IgG
B13: L3.PY/L1.FF/H2.QL (antibody, V domains shown)
VH: B3 VH with S63Q, V64L, A104S, Q105G
VL: B3 VL with S32F, Y33F, K90Q, F91H
notes: IgG

Tests used:
[1] = target: Human BCMA (human) (UniProt Q02223); test: SPR, IgG on chip, huBCMA analyte
[2] = target: T1, cynomolgus monkey BCMA (cynomolgus monkey, UniProt A0A2K5UD97 1-53); test: SPR, IgG on chip, cyBCMA analyte
T1 construct: Soluble analyte in SPR; construct not described; also called cyBCMA; Cyno BCMA
T1 sequence (A0A2K5UD97 entry or part of it): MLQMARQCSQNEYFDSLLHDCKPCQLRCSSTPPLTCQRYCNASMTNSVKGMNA

[3] = target: Human BCMA (human) (UniProt Q02223); test: SPR, IgG immobilised, huBCMA analyte, 37 C
[4] = target: T1, cynomolgus monkey BCMA; test: SPR, IgG on chip, cyBCMA analyte, 37C

Binder | Kd [1] [nM] | koff [1] [s⁻¹] | kon [1] [M⁻¹ s⁻¹] | Kd [2] [nM] | koff [2] [s⁻¹] | kon [2] [M⁻¹ s⁻¹] | Kd [3] [nM] | T½ [3] [min] | koff [3] [s⁻¹] | kon [3] [M⁻¹ s⁻¹] | Kd [4] [nM] | T½ [4] [min] | koff [4] [s⁻¹] | kon [4] [M⁻¹ s⁻¹]
B1 | 0.019 | 0.000169 | 8.99e+06 | 0.14 | 0.000428 | 3.06e+06 | – | – | – | – | – | – | – | –
B2 | 0.018 | 9.72e-05 | 5.47e+06 | 0.105 | 0.00016 | 1.52e+06 | – | – | – | – | – | – | – | –
B3 | – | – | – | – | – | – | 0.65 | 5.09 | 0.00227 | 3.48e+06 | 0.93 | 4.85 | 0.00238 | 2.55e+06
B4 | – | – | – | – | – | – | 0.51 | 6.92 | 0.00167 | 3.3e+06 | 1.56 | 3.38 | 0.00341 | 2.19e+06
B5 | – | – | – | – | – | – | 0.54 | 6.12 | 0.00189 | 3.52e+06 | 1.62 | 3.07 | 0.00376 | 2.32e+06
B6 | – | – | – | – | – | – | 0.37 | 9.68 | 0.00119 | 3.27e+06 | 1.32 | 3.83 | 0.00302 | 2.28e+06
B7 | – | – | – | – | – | – | 0.65 | 4.27 | 0.00271 | 4.14e+06 | 1.88 | 2.31 | 0.005 | 2.66e+06
B8 | – | – | – | – | – | – | 0.51 | 6.54 | 0.00177 | 3.47e+06 | 1.65 | 2.75 | 0.00421 | 2.55e+06
B9 | – | – | – | – | – | – | 0.46 | 7.61 | 0.00152 | 3.32e+06 | 1.49 | 3.55 | 0.00326 | 2.19e+06
B10 | – | – | – | – | – | – | 0.63 | 5.29 | 0.00219 | 3.49e+06 | 1.79 | 2.77 | 0.00417 | 2.33e+06
B11 | – | – | – | – | – | – | 0.46 | 7.51 | 0.00154 | 3.32e+06 | 1.51 | 3.51 | 0.00329 | 2.18e+06
B12 | – | – | – | – | – | – | 0.69 | 4.39 | 0.00263 | 3.82e+06 | 1.76 | 2.31 | 0.00501 | 2.85e+06
B13 | – | – | – | – | – | – | 0.4 | 8.28 | 0.0014 | 3.48e+06 | 1.91 | 2.57 | 0.00449 | 2.36e+06
